Patent US20130267423A1, “PEPTIDE LIBRARIES FOR SCREENING AND OTHER APPLICATIONS” (priority 2010, published 2013)

How the values were obtained:
C-reactive protein (CRP) [1] = target: T1, C-reactive protein (CRP) (Homo sapiens, UniProt P02741); experiment: Affinity measurements by surface plasmon resonance (Biacore T100, CRP immobilized on CM5 chip); assay type: binding; conditions: CRP immobilized approx. 5000 RU; peptide 5 micromolar down to 2 nM; 25° C.; FIG. 8A
T1 sequence (P02741 19-224): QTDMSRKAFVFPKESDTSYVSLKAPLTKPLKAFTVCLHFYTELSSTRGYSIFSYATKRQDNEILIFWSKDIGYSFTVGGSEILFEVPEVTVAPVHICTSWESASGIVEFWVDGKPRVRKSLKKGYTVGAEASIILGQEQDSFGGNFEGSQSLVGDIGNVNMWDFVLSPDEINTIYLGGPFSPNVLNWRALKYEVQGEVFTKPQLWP
Method: Affinity measurements. Affinity measurements were performed using a Biacore T100 system and research grade CM5 sensor chips (GE Heathcare). The instrument was primed with HBS-EP+ (GE Heathcare) buffer. Flow cell 1 (or 3) was used as a reference to subtract nonspecific binding, drift, and the bulk refractive index, while flow cell 2 (or 4) was immobilized with CRP following standard procedures. A 1:1 mixture of 0.4 M EDC and 0.1 M NHS was used to activate flow cell 2 (or 4), and 0.1 mg/mL CRP solution was injected. Blocking of the remaining activated groups was done with a 1 M solution of ethanolamine (pH 8.5). CRP was immobilized onto the sensor chip surface by approximately 5000 response units (RU). The instrument was then primed using running buffer (HBS-EP+). Each of the 6-mer ligand candidates identified were dissolved in HBS-EP+ buffer to produce 5 micromolar peptide stock solutions for each peptide, which were serially diluted by a factor of 2 to produce a concentration series down to 2 nM. For a given affinity measurement, these series of peptide solutions successively were injected into flow cell 2 (or 4) for 3 min of contact time, 5 min of dissociation time, and 3.5 min of stabilization time using a flow rate of 100 microliter/min at 25° C. Flow cell 2 (or 4) was regenerated by glycine 2.5 (GE Healthcare) after injection of each peptide solution.

C-reactive protein (CRP) [2] = target: T1, C-reactive protein (CRP); experiment: Dot blot selectivity/sensitivity assay with biotinylated 6-mer peptides; assay type: binding; conditions: biotinylated 6-mer at 1 micromolar in 5% nonfat milk/TBS-T; CRP 20 micrograms to 2 ng per spot; FIG. 8B
Method: Dot blot selectivity/sensitivity assays in serum. […] CRP solution was prepared as 10 mg/mL stocks in PBS buffer (pH 7.4). A dilution series of CRP solution was applied to a nitrocellulose membrane, typically ranging from 20 micrograms to 2 ng per spot. The membrane was blocked at room temperature for 2 h in 5% nonfat milk/TBS-T. The membrane was then washed with TBS-T. The biotinylated 6-mer solution was prepared at 1 micromolar in 5% nonfat milk/TBS-T and incubated over the membrane for 2 h at room temperature. After washing three times with TBS-T for 10 min, 1:3000 streptavidin-HRP (Abeam) prepared in 0.5% milk/TBS-T was added to the membrane and incubated for 2 h. After washing three times with TBS-T for 10 min, the membrane was treated with chemiluminescent reagents (Amersham ECL plus Western blotting detection reagents, GE Healthcare) and then immediately developed on film.

## LYFRRW (Synthetic Peptide Fragment) [6-mer CRP ligand candidate from focused library B screening]
C-reactive protein (CRP) [1]
  binding affinity to CRP / response in SPR: highest response
C-reactive protein (CRP) [2]
  binding affinity to CRP / response in dot blot: highest response

## WKFRYK (Synthetic Peptide Fragment) [6-mer CRP ligand candidate from focused library A screening]
C-reactive protein (CRP) [1]
  binding affinity to CRP / response in SPR: highest response
C-reactive protein (CRP) [2]
  binding affinity to CRP / response in dot blot: highest response
